In patent US20230381333A1 (HANMI PHARM, published 2023):
Bridge positions count the residues as written; N and C are the ends. Square brackets hold non-standard residues; d marks the D form. Ends that are not written are not given here. * marks the point of attachment. Acetyl(2-(4-imidazolyl)) = O=C(Cc1c[nH]cn1)*; Aib = CC(C)(N)C(=O)O

T1: human GIP receptor (human, UniProt P48546 22-466)
T1 sequence (looked up): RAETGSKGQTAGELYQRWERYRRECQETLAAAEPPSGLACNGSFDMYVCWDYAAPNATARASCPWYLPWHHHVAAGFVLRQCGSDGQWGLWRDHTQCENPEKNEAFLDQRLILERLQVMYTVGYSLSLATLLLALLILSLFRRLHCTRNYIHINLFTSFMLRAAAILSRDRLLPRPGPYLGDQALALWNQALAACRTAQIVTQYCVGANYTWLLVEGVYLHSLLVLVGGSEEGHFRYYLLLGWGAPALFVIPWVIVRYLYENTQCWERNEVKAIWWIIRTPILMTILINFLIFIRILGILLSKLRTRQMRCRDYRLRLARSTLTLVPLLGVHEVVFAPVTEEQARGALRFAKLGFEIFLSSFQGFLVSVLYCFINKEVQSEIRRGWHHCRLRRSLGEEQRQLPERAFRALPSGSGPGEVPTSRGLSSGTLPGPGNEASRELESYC


Columns and labels:
Experiment in all cases: cell-based or functional assay
[1] = target: human GCG receptor (human, UniProt P47871 26-477)
Sequence of human GCG receptor (P47871 26-477): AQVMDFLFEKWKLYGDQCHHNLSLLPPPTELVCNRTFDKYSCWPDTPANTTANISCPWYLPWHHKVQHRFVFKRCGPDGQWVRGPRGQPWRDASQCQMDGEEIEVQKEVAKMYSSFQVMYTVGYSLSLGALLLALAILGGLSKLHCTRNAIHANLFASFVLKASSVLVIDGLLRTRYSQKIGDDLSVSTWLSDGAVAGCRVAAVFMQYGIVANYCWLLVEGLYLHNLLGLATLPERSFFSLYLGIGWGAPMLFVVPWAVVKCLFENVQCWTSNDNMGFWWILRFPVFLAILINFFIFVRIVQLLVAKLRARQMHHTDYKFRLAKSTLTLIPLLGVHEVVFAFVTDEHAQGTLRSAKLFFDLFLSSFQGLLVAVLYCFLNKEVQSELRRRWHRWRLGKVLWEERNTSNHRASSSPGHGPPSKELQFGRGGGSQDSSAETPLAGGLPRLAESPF

[2] = target: human GLP-1 receptor (human, UniProt P43220 24-463)
[3] = target: T1, human GIP receptor

Binder	In vitro activity compared to native-type peptide (%), vs Glucagon [1]	In vitro activity compared to native-type peptide (%), vs GLP-1 [2]	In vitro activity compared to native-type peptide (%), vs GIP [3]
Y[Aib]QGTFTSDYSKYLDEKRAKEFVQWLLDHHCSSGQPPPS (bridge 16-20) [triple agonist of SEQ ID NO: 43]	88.4%	12.6%	3.7%
Y[Aib]QGTFTSDYSKYLDEKRAKEFVQWLLDHHPSSGQPPPSC (bridge 16-20) [triple agonist of SEQ ID NO: 42]	206%	33.9%	7.8%
H[Aib]QGTFTSDVSSYLDGQAAKEFIAWLVKGC [triple agonist of SEQ ID NO: 1]	< 0.1%	3.2%	< 0.1%
H[Aib]QGTFTSDYSIAMDEIHQKDFVNWLLAQC (bridge 16-20) [triple agonist of SEQ ID NO: 55]	0.7%	27.1%	2.4%
H[Aib]QGTFTSDKSKYLDERACQDFVQWLLDGGPSSGAPPPS [triple agonist of SEQ ID NO: 40]	< 0.1%	75.2%	< 0.1%
H[Aib]QGTFTSDYSIAMDEIHQKDFVNWLLNTKC (bridge 16-20) [triple agonist of SEQ ID NO: 35]	< 0.1%	7.5%	1.3%
H[Aib]QGTFTSDVSSYLLGQQQKEFIAWLVKGGGPSSGAPPPSC [triple agonist of SEQ ID NO: 5]	< 0.1%	42.1%	< 0.1%
H[Aib]QGTFTSDYSKYLDEKRAKEFVQWLLDHHPSSGQPPPSC (bridge 16-20) [triple agonist of SEQ ID NO: 50]	50.5%	67.4%	2.7%
H[Aib]QGTFTSDYSKYLCEKRQKEFVQWLLNGGPSSGAPPPSG (bridge 16-20) [triple agonist of SEQ ID NO: 36]	0.39%	37.4%	0.2%
H[Aib]QGTFTSDKSKYLDECAAQDFVQWLLDGGPSSGAPPPS [triple agonist of SEQ ID NO: 41]	< 0.1%	34.3%	< 0.1%
[Acetyl(2-(4-imidazolyl))][Aib]QGTFTSDYSICMDEIHQKDFVNWLLNTK (bridge 16-20) [triple agonist of SEQ ID NO: 49]	< 0.1%	29.8%	3.3%
H[Aib]QGTFTSDYSKYLDEKRQKEFVNWLLAQC (also: ring formation (underlined residues), positions not given here) [triple agonist of SEQ ID NO: 56]	4.9%	57.9%	0.8%
H[Aib]QGTFTSDVSSYLDGQAAKEFVAWLLKGC [triple agonist of SEQ ID NO: 6]	< 0.1%	17%	< 0.1%
HGQGTFTSDCSKQLDGQAAQEFVAWLLAGGPSSGAPPPS [triple agonist of SEQ ID NO: 44]	< 0.1%	1.3%	< 0.1%
HGQGTFTSDCSKYMDGQAAQDFVAWLLAGGPSSGAPPPS [triple agonist of SEQ ID NO: 45]	< 0.1%	6.6%	< 0.1%
